Test results taken from patent US20240392013A1, “IL1RAP ANTIBODIES AND USES THEREOF” (STELEXIS THERAPEUTICS, LLC, priority 2021, published 2024).

Key:
[1] = test system: IL1-induced downstream signaling (phospho-p38, NFκB) in THP-1 cells; test: IL1 signaling in AML (THP-1) cells, Western blot; assay type: cell-based, human; details: antibody 20 μg/ml, IL1β 100 ng/ml
Procedure: (§1) AML patient samples or cancer cells (AML, chronic myelogenous leukemia (CML), pancreatic, head and neck squamous cell carcinoma (HNSCC), bladder, non-small-cell lung carcinoma (NSCLC), colorectal and triple-negative breast cancer (TNBC)) were seeded in 6-well plates (5×10^5 cells/well) and incubated overnight at 37° C./5% CO2 in humified incubator. In experiments conducted in cancer cell lines, cells were washed 2× with PBS and serum-starved for 3 hours. Following, cells were treated with IL1RAP antibodies at concentration of 20 μg/ml and incubated for 1 h at 37° C./5% CO2 in humidified incubator. After 1 h, cells were treated with IL1β (Invivogen, cat: rcyec-hil1b), IL33 (Adipogen, cat: AG-40B-0160-C010) or IL36 cytokines (R@D, cat: 6836IL) at 100 ng/ml and incubated for 15 more minutes. Cells were harvested on ice after 1× wash with cold PBS and were centrifuged for 5 minutes at 5000 rpm at 4° C. Cells were then lysed with NP-40 buffer for 5 minutes on ice and centrifuged for 15 minutes at 15000 rpm at 4° C. Supernatants were collected and protein concentrations were determined by BCA (Thermofisher, Cat #PI23225). […] After 3× washes, ECL was applied (Thermofisher, Cat #32106) and proteins were detected after exposure to autoradioraphic films (Worldwide medical products, Cat #41101001) and protein intensity was quantitated using ImageJ software.

[2] = test system: IL1-induced downstream signaling (phospho-ERK, AKT, p38, NFκB) in A6L, CAL33, 5637, A549, Colo205, HCC70 cells; test: IL1 signaling in solid tumor cancer cells, Western blot; assay type: cell-based; details: antibody 20 μg/ml
Procedure: as §1

[3] = test system: IL36-induced downstream signaling (phospho-ERK, AKT, p38, NFκB) in HPAC, CAL33, 5637 cells; test: IL36 signaling in solid tumor cancer cells, Western blot; assay type: cell-based; details: IL36γ, antibody 20 μg/ml
Procedure: as §1

AML patient samples [4] = test: Proliferation of AML patient samples, Cell-Titer Glo; assay type: cell-based, human; details: 1 μM, 7 days
AML patient samples [5] = test: Clonogenic capacity of AML patient samples; assay type: cell-based, human; details: 333 nM, two weeks
Procedure: AML patient samples or healthy control samples (4000 cells) were washed and resuspended in 30 μl Iscove's Modified Dulbecco's Medium (IMDM) media supplemented with 2% FBS. Cells […] were mixed with 3 ml methylcellulose (MthoCult H4034 Optimum) supplemented with pen/strep or primocin (100 μg/ml) and IL1RAP antibodies (333 nM) and 1 ml were seeded in 35 mm dishes in duplicates. The dishes were incubated at 37° C./5% CO2 in humidified incubator for 14-16 days. Colonies were counted using inverted microscope.

[6] = test system: AML patient-derived leukemic cells; test: Jurkat-Lucia NFAT-CD16 ADCC reporter assay against AML patient-derived leukemic cells; assay type: cell-based, human
Text: Methods: ADCC activity is mediated through binding of NK cell's CD16 receptors to the Fc region of antibodies. A Jurkat-Lucia NFAT-CD16 ADCC Reporter cell assay (Invivogen, Cat #jktl-nfat-cd16; https://www.invivogen.com/jurkat-lucia-nfat-adcc-adcp-cells) was used to analyze IL1RAP mAb STLX2012 for ADCC activity. Briefly, the Jurkat cell line was engineered to express the cell surface Fc receptor CD16A (FcγRIIIA) and the Lucia luciferase reporter gene. ADCC is triggered by CD16A cross-linking upon antigen-bound antibody binding at the surface of immune effector cells. Cells are maintained in the presence of zeocin (100 μg/ml) and blasticidin (10 μg/ml).

[7] = test system: AML patient-derived samples; test: Colony formation of AML patient-derived samples, alone or with Azacitidine or Venetoclax; assay type: cell-based, human; details: 2 weeks
Procedure: Methods: Clonogenicity of AML patient-derived samples were assayed using STLX2012 alone or in combination with Azacitindine (Aza) or Venetoclax (Ven). AML patient-derived samples were plated in MethoCult media and cultured in the presence of STLX2012 (50 μg/mL) or control IgG1 antibody (50 μg/mL), plus or minus Azacitidine (100 nM) or Venetoclax (100 nM), for 2 weeks. Colony numbers were counted manually using an inverted microscope and normalized to the control IgG1 control.

AML cells (patient #6) = test: AML patient-derived sample engraftment in immunodeficient mice; assay type: in vivo, NSG-SGM3 immunodeficient mice
Text: Methods: NSG™-SGM3 immunodeficient mice (Jackson Laboratory) were irradiated with 200 rads and then infused with AML cells (patient #6) collected from a leukapheresis sample and then treated bi-weekly with three doses of STLX2012 or control IgG1 antibody for 7 weeks. Doses were 1 mpk, 10 mpk, or 30 mpk for STLX2012, and 30 mpk for control IgG1.

[8] = day 50, 1, 10, 30 mpk bi-weekly 7 weeks, vs control IgG

B1: 74804_12A21B: anti-IL1RAP mAb; VH SEQ ID NO:6, VL SEQ ID NO:23, κ light chain (antibody, V domains shown)
VH: QVQLLQSGAEVKKPGSSVKVSCKASGGTFSIYAIDWVRQAPGQGLEWMGGIIPIFGTANSAQKFQGRVTITADKSTSTAYMELSSLRSEDTAVYYCARNGATSDAFDMWGQGTMVTVSS
VL: EIVLTQSPGTLSLSPGERATLSCRASLSVSSNYLAWFQQRPGQAPRLLIHGVSRRATGIPDRFSGSGSGTDFTLTISRLEPEDFAVYYCQQYGSSPLTFGGGTKVEIK
modifications: 74804_12A21B VH and 74804_29D13A VH; 74804_12A21B VL
Inhibition of IL1 signaling (phosphorylation of p38 and NFκB) [1]: inhibited IL1 signaling in these AML (THP-1) cells
Inhibition of IL1 signaling (phosphorylation of ERK, AKT, p38 and NFκB) [2]: inhibited IL1 signaling in solid tumor cancer cells
Inhibition of IL36 signaling (phosphorylation of ERK, AKT, p38 and NFκB) [3]: Inhibition of IL36 signaling in solid tumor cancer cells
Inhibition of cell proliferation (AML patient samples [4]): inhibited cell proliferation
Inhibition of clonogenic capacity (colony formation) (AML patient samples [5]): inhibited the clonogenic capacity
ADCC activity (reporter) [6]: showed ADCC activity
Colony numbers, combined with Azacitidine ([7]; STLX2012 50 μg/mL + Azacitidine 100 nM): Further reduction in colony numbers
Colony numbers, combined with Venetoclax ([7]; STLX2012 50 μg/mL + Venetoclax 100 nM): Further reduction in colony numbers
Colony numbers ([7]; STLX2012 50 μg/mL alone, vs control IgG1): decreased colony numbers in AML patient samples
bone marrow (BM) chimerism, dose dependence (AML cells (patient #6); 1, 10, 30 mpk): dose-dependent reduction in bone marrow (BM) chimerism
human CD45+AML cells in spleens (AML cells (patient #6); [8]): significantly reduced human CD45+AML cells
human CD45+AML cells in the bone marrow (AML cells (patient #6); [8]): significantly reduced human CD45+AML cells
